Results from the supplement of paper PMC10126150.
± gives the standard deviation of the averaged measurements.

test system: ATP; assay: switch fluorescence ratio, 500 uM ATP over buffer (Cy3 cluster intensity, sum of 5 cycles each) (fold (ratio)); higher = stronger signal-on switching upon ATP binding; sequences stand for … in TCGTCGGCAGCGTCAGATGTGTATAAGAGACAGTTTTTTTTTTTTTTTTTTTTTTTTT…TC; details: aptamer strand: ATP DNA aptamer (quencher-CACCTGGGGGAGTATTGCGGAGGAAGG + anchor), 100 nM annealed; ATP concentration: 500 uM
How it was run: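 Switching-strand clusters labelled with Cy3 on a modified Illumina MiSeq flow-cell were annealed to 100 nM quencher-labelled ATP aptamer, imaged in selection buffer, and re-imaged after 15 min with 500 uM ATP at 22 °C. This was done over five cycles with NaOH stripping and re-annealing in between. The fluorescence ratio is summed target-cycle over summed buffer-cycle Cy3 intensity per cluster, averaged per switch-domain sequence, excluding clusters outside 100-1000 RFU.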
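Further: ATP exposure 15 min at 22 °C before imaging.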

Row | Sequence | switch fluorescence ratio
1 | TATTTGGTT | 0.991 ± 0.024
2 | TATTTGTAAT | 1.03 ± 0.02
3 | TATTTGTAGG | 1.05 ± 0.045
4 | TATTTGTGTT | 0.997 ± 0.016
5 | TATTTGTTCT | 1 ± 0.024
6 | TATTTTAATT | 0.991 ± 0.017
7 | TATTTTACGT | 1.01 ± 0.013
8 | TATTTTCGTA | 1 ± 0.021
9 | TATTTTCTGT | 0.997 ± 0.036
10 | TATTTTGGAA | 0.986 ± 0.044
11 | TATTTTGGGG | 0.988 ± 0.019
12 | TATTTTGTTT | 0.99 ± 0.014
13 | TATTTTTAGG | 1 ± 0.032
14 | TCAAAAAAAT | 1.02 ± 0.091
15 | TCAAAATTTA | 1.02 ± 0.048
16 | TCAAACAGGG | 1.04 ± 0.051
17 | TCAAACATTT | 1.016 ± 0.0076
18 | TCAAACCGGT | 0.983 ± 0.043
19 | TCAAACTTTA | 1.03 ± 0.025
20 | TCAAAGACGG | 1.02 ± 0.016
21 | TCAAAGCAAA | 1.41 ± 0.077
22 | TCAAATCGGG | 0.999 ± 0.014
23 | TCAAATGGTA | 1.006 ± 0.0037
24 | TCAAATTCGG | 1.01 ± 0.011
25 | TCAACAACCA | 1.06 ± 0.017

Row | Sequence | switch fluorescence ratio
26 | TCAACCGGGA | 1.06 ± 0.09
27 | TCAACGCCCC | 1.28 ± 0.055
28 | TCAACTATTA | 0.977 ± 0.018
29 | TCAAGATA | 1.13 ± 0.21
30 | TCAAGATTTT | 0.975 ± 0.025
31 | TCAAGGCACA | 1.089 ± 0.01
32 | TCAAGGCCGG | 1.02 ± 0.035
33 | TCAAGGGGCT | 1 ± 0.013
34 | TCAAGGGGGC | 0.9915 ± 0.0018
35 | TCAAGGGTTA | 1.02 ± 0.011
36 | TCAAGTGCAG | 0.99 ± 0.027
37 | TCAAGTTTTG | 0.972 ± 0.015
38 | TCAATAGAGG | 1.05 ± 0.034
39 | TCAATAGGTT | 1.01 ± 0.024
40 | TCAATGCGCC | 1.46 ± 0.4
41 | TCAATGGGAA | 0.967 ± 0.026
42 | TCAATGGTTG | 0.988 ± 0.028
43 | TCAATTTCAC | 1.9 ± 1.3
44 | TCAATTTTGT | 0.997 ± 0.022
45 | TCACAGTTGG | 1.032 ± 0.0034
46 | TCACATTATA | 1.009 ± 0.0078
47 | TCACCTTGGA | 1.05 ± 0.096
48 | TCACGGTGCT | 1.15 ± 0.19
49 | TCACGTAGGC | 1.04 ± 0.053
50 | TCACGTGGTT | 1.03 ± 0.016

Row | Sequence | switch fluorescence ratio
51 | TCACTCTATC | 1.0455 ± 0.00057
52 | TCACTGGGTT | 1.01 ± 0.068
53 | TCACTGGTCT | 0.9849 ± 0.0037
54 | TCACTGGTTG | 1.01 ± 0.011
55 | TCACTTGGGT | 0.996 ± 0.036
56 | TCAGAAAGTG | 1 ± 0.041
57 | TCAGACAGCG | 1.03 ± 0.053
58 | TCAGACGTTC | 1.07 ± 0.05
59 | TCAGACGTTT | 1.011 ± 0.009
60 | TCAGACTGCG | 0.999 ± 0.023
61 | TCAGAGGATC | 0.961 ± 0.017
62 | TCAGAGGTAT | 1.02 ± 0.014
63 | TCAGATAGGG | 0.968 ± 0.017
64 | TCAGATGTCT | 1.03 ± 0.055
65 | TCAGCATGTC | 1.27 ± 0.036
66 | TCAGCGAATT | 0.98 ± 0.015
67 | TCAGCGTGTC | 0.9648 ± 0.0079
68 | TCAGCTGGGG | 0.9799 ± 0.0058
69 | TCAGGAATTT | 1.68 ± 1.2
70 | TCAGGAGTAA | 1.82 ± 0.12
71 | TCAGGATGGA | 1 ± 0.018
72 | TCAGGATTGA | 0.98 ± 0.036
73 | TCAGGCCCGT | 1.01 ± 0.026
74 | TCAGGGAGTA | 1.04 ± 0.053
75 | TCAGGGATGG | 0.984 ± 0.042

Row | Sequence | switch fluorescence ratio
76 | TCAGGGGAGG | 1.03 ± 0.036
77 | TCAGGGGCAT | 1.18 ± 0.3
78 | TCAGGGGCCT | 1.03 ± 0.044
79 | TCAGGGGTT | 1.15 ± 0.12
80 | TCAGGGTGCT | 1.1 ± 0.029
81 | TCAGGGTTGC | 1.03 ± 0.025
82 | TCAGGTAATG | 0.98 ± 0.033
83 | TCAGGTAGTG | 0.9875 ± 0.0078
84 | TCAGGTATCG | 1 ± 0.021
85 | TCAGGTATGT | 1.01 ± 0.038
86 | TCAGGTTAGT | 1.02 ± 0.022
87 | TCAGTAAATT | 0.965 ± 0.055
88 | TCAGTAGGCA | 1.01 ± 0.011
89 | TCAGTCCTAT | 1 ± 0.026
90 | TCAGTCGGAT | 0.9768 ± 0.0078
91 | TCAGTGAGTG | 1 ± 0.033
92 | TCAGTGCTGT | 1 ± 0.035
93 | TCAGTGCTTA | 1.01 ± 0.038
94 | TCAGTGGATG | 0.9794 ± 0.0032
95 | TCAGTGGGGC | 0.9987 ± 0.0093
96 | TCAGTGGGGT | 1.004 ± 0.0072
97 | TCAGTTGTGC | 1.01 ± 0.042
98 | TCAGTTTACG | 0.988 ± 0.019
99 | TCAGTTTGTT | 0.997 ± 0.023
100 | TCAGTTTTCT | 1.01 ± 0.057
